In patent US8673270B2, “RGD-containing peptidomimetics and uses thereof” (priority 2008, dated 2014):
Read-outs that look alike come from different tables or passages of the source.

Key:
[1] = tested on: MLS human ovarian carcinoma cells; experiment: Integrin binding assay (in vitro), fluorescence imaging of cells incubated with conjugate; format: cell-based; details: 100 μM/well, 3 hrs at 37° C., IVIS imaging
Procedure: (xv) In-vitro binding assay. MLS human ovarian carcinoma cells were cultured as monolayers in minimum essential medium (MEM-alpha) containing 1 g/l D-glucose, pH 7.4, 10% fetal calf serum (FCS), glutamine (2 mM), penicillin (0.06 mg/ml) and streptomycin (0.1 mg/ml), and were grown at 37° C. in 5% CO2-humidified atmosphere. At 48 hrs before experiment, cells were seeded at 6 well plates (3×10^5 cells/well).
Expression of αvβ3 integrin on MLS cells. The cells were grown on cover slips. Following overnight serum starvation, fixation with 4% paraformaldehyde (Sigma, Israel) and permeabilization with 0.2% Triton X-100 (Sigma, Israel), cells were incubated in blocking solution (10% of horse serum) (Biological Industries, Israel) for 1 hr at RT. Cells were then incubated with mouse anti-human αvβ3 integrin antibodies (1:100) (Chemicon, Biotest, Israel) for 1 hr at RT. Secondary rabbit FITC-labeled anti-mouse IgG (1:200) (Sigma, Israel) were applied to cells for 1 hr at RT. Imaging was performed by fluorescent microscope (Nikon Optiphot2, Japan) equipped with a digital camera (DVC Company, Inc., Austin, Tex.).
In vitro binding assay. RGD-conjugates were initially dissolved in DMSO to yields 4×10^−3 M. The stock solutions were then diluted 1:40 in culture medium and added into MILS or HT29 cells (100 μM/well). Cells were incubated at 37° C. in 5% CO2-humidified atmosphere for 3 hrs. Cells were then washed 3 times with PBS and images were performed on a Xenogen IVIS® 100 Series Imaging System. The excitation and emission filters set in the IVIS for BTA-RGD were 710-760 nm and 810-860 nm, respectively, and for FITC-RGD were 445-490 nm and 515-575 nm, respectively.

[2] = tested on: LNCaP prostate cancer cells; experiment: In-vivo prostate cancer model, IVIS imaging; details: for Fluorescent level in excised organs: 14 hrs after injection, prostate and ovarian tumor-bearing mice; for Time of highest fluorescent level in tumor after injection: LNCaP prostate tumor
human αvβ3 integrin = target: T1, human αvβ3 integrin (Homo sapiens, UniProt P05106+P06756); experiment: Competitive binding experiments (determination of IC50) against c[RGDfK]-biotin, ELISA; details: competition with c[RGDfK]-biotin (10^−3M), coated integrin
T1 construct: purchased Chemicon
Procedure: (viii) Integrin binding test by ELISA. Nunc immuno-module strips (Nunclon, Cat#167008, Daniel Biotech, Israel) were coated for overnight with 2 μg/ml human integrin αvβ3 (Chemicon, Cat#CC1020, Biotest, Israel) dissolved in 0.06 M carbonate-bicarbonate buffer. Strips were blocked for 2 hrs at RT with 2% bovine serum albumin (BSA) (Sigma, Cat#A-9647, Israel) in phosphate buffered saline (PBS) (Biological Industries, Israel). A mixture of c[RGDfK]-biotin (10^−3M) and a test compound at different concentrations (10^−2, 10^−3, 10^−4 and 10^−5M) diluted in assay buffer (50 mM Tris HCl, pH=7.7, 0.5% BSA, 0.15 M NaCl, 0.01% Tween 20) was added to the coated strips and was incubated overnight at RT with shaking. After washing with PBS, anti-biotin antibodies labeled by alkaline phosphatase (1:200) (Miltenyi Biotec, Almog, Israel) were added and incubated for 1 hr at RT. The samples were incubated with p-nitrophenyl phosphate substrate (p-NPP, Calbiochem, Mercury, Israel) and read at 405 nm.
(xvi) Competitive binding experiments (determination of IC50). Immuno-module strips MAXISORP (Nunc, Danyel Biotech, Israel) were coated with 50 μl/well of 2 μg/ml human αvβ3 integrin (Chemicon, USA) overnight and blocked with 2% BSA (Sigma, Israel) for 2 hrs at RT. After wash with Tris buffered saline-Tween (TBST) buffer, a mixture of RGD peptide c[RGDfK]-biotin (10^−3M) and the tested RGD-conjugate at different concentrations (10^−2, 10^−3, 10^−4 and 10^−5 M) was added in triplicates and was incubated overnight and shaken at RT. After wash with PBS buffer, anti-biotin antibodies labeled by alkaline phosphatase (1:200) (Miltenyi Biotec, Germany) were added and incubated for 1 hr at RT. The samples were incubated with p-NPP substrate and read at 405 nm on Multiscan Spectrum (Labotal, Israel). The data were plotted to graph of dependence of binding percent out of concentration of RGD-conjugate and IC50 value was determined. […]

Toxicity study on rats = format: in vivo; details: 50 mg/kg into tail vein; for Necrosis or inflammation in liver or kidneys: after five days
Procedure: The various conjugates at dose of 50 mg/kg were injected into the tail vein during 1-2 min.

[3] = tested on: MLS human ovarian carcinoma cells; parameters: species or system CD-1 nude mice; details: mouse, in vivo
Excerpt: (ix) In-vivo ovarian carcinoma model. Female CD-1 nude mice (7-9 weeks old, 23-28 gr) were anaesthetized and subcutaneously (SC) implanted with MLS human ovarian carcinoma cells (obtained from Prof. M. Neeman, the Weizmann Institute of Science, Israel) suspension (2-3×10^6 cells/mouse). Tumors reached treatment size, diameter 6-8 mm, within 2-3 weeks.
Animals were anaesthetized by gas with mixture of 7:3 N2O:O2 containing 2% isofluorane (Medeva, Bethlehem, Pa.) or by intraperitoneal (IP) injection with mixture of 5 mg/kg ketamine (Rhone Merieux, Lyon, France) and 1 mg/kg pompun (Bayer, Leverkusen, Germany) (85:15, v:v).
(xiii) Fluorescent imaging protocol for BTA-RGD conjugates. Test compounds (8 mg/kg) were injected into the tail vein of IP anaesthetized tumor-bearing mice. Images of gas-anaesthetized animals were taken at 6, 8, 10, 12, 14 and 24 hrs (in some cases also at 48 and 72 hrs) after injection using IVIS® 100 Series Imaging System. The excitation and emission filters were set in the IVIS to 710-760 nm and to 810-860 nm, respectively. The emission filter with wavelength closest to the emission peak of the compound was selected among available filters in the standard configuration of IVIS.
(xiv) Fluorescent imaging protocol for FITC-RGD conjugates. Test compounds (8 mg/kg) were injected into the tail vein of IP anaesthetized tumor-bearing mice. Images of gas-anaesthetized animals were taken at 6 and 8 hrs after injection. Animals were sacrificed at 8 hrs, the organs (tumor, kidney, liver) were excited and images of the organs were taken using IVIS® 100 Series Imaging System. The excitation and emission filters were set in the IVIS to 445-490 nm and to 515-575 nm, respectively. The emission filter with wavelength closest to the emission peak of FITC was selected among available filters in the standard configuration of IVIS.

[4] = tested on: MDA-MB-231-RFP human breast cancer cells; experiment: In-vivo breast cancer model, orthotopic large necrotic tumor, IVIS imaging; parameters: species or system CD-1 nude mice; details: six days post injection, necrotic tumors 1-1.5 cm^3
Procedure: (xii) In-vivo breast cancer model. Female CD-1 nude mice (6-8 weeks old, 20-25 g, obtained from Harlan Biotech Israel, Rehovot, Israel) were implanted with MDA-MB-23′-RFP human breast cancer cells (4×10^6 cells/mouse). […] When tumors reached the size of 1-1.5 cm^3 for necrotic tumors, mice were anaesthetized by IP injection of 30 μl mixture of 85:15 ketamine:xylazine, and the test conjugate (15 mg/kg) was then injected to the tail vein.
In this study, the specific accumulation pattern of conjugates 1, 4 and 41 in orthotopic primary lesions of mammary carcinoma model, monitored by fluorescence signal generated by the tumor, and the fluorescence signal generated by these conjugates were examined. The localization of the conjugates in the tumors as time progress was also determined. Animals were treated as described in Materials and Methods, and fluorscence of both tumor cells and conjugates 1, 4 and 41 was monitored by IVIS® 100 imaging system from day 1 to 7.
FIGS. 1A, 1B and 1C show the accumulation patterns of conjugates 1, 4 and 41, respectively, in orthotopic human breast MDA-MB-231-RFP primary large tumor in the mammary pad of CD-1 nude female mice, using the Xenogen IVIS® System. Whole animal images° were recorded concomitantly using filter sets comprising excitation filter 500-550 nm and emission filter 575-650 nm. Background filter set for subtraction the tissue auto fluorescence: excitation filter 460-490 nm and emission filter 575-650 nm. Photosensitizer imaging main filter set: excitation filter 665-695 nm, emission filter 810-875 nm.

[5] = tested on: LNCaP prostate cancer cells; details: mouse, in vivo

Compound	Integrin binding assay (in vitro) [1]	Fluorescent level in excised organs [2]	Time of highest fluorescent level in tumor after injection [2] [h]	IC50 (human αvβ3 integrin) [µM]	Survival, behavior and motility (Toxicity study on rats)	Necrosis or inflammation in liver or kidneys (Toxicity study on rats)	Time of highest fluorescent level in tumor after injection [3] [h]	Time the conjugate stayed in the tumor [3]	Localization of conjugate within breast tumor [4]	Time of highest fluorescent level in tumor after injection [5] [h]
CCC1c2cc3[nH]c(c(CC(=O)OC)c4nc(cc5[nH]c(cc(n2)C1C)c(C(C)=O)c5C)C(C)C4CCC(=O)N[C@H]1CNC(=O)[C@H](CC(=O)O)NC(=O)CNC(=O)[C@H](CCCNC(=N)N)NC(=O)NCCNC1=O)c(C(=O)NCCS(=O)(=O)O)c3C (some centres unmarked) [Conjugate 1]	Binding	high fluorescent level observed in the liver and kidney	8 to 11	100	Animals were survived and did not show any behavior or motility problems	no evidence of necrosis or inflammation was found in the liver or the kidneys	8 to 11	up to 48 hrs	Accumulate in the Necrotic Core of MDA Necrotic Tumors	
CCC1c2cc3[nH]c(c(CC(=O)OC)c4nc(cc5[nH]c(cc(n2)C1C)c(C(C)=O)c5C)C(C)C4CCC(=O)N[C@H]1CCCNC(=O)[C@H](CC(=O)O)NC(=O)CNC(=O)[C@H](CCCNC(=N)N)NC(=O)NCCNC1=O)c(C(=O)NCCS(=O)(=O)O)c3C (some centres unmarked) [Conjugate 4]	Binding	high fluorescent level observed in the liver and kidney	8 to 14	300	Animals were survived and did not show any behavior or motility problems	no evidence of necrosis or inflammation was found in the liver or the kidneys	8 to 14	up to 48 hrs	Accumulate in the Necrotic Core of MDA Necrotic Tumors	
CCC1c2cc3[nH]c(c(CC(=O)OC)c4nc(cc5[nH]c(cc(n2)C1C)c(C(C)=O)c5C)C(C)C4CCC(=O)NCCCC[C@@H]1NC(=O)N[C@@H](Cc2ccccc2)C(=O)NC[C@@H](C(N)=O)NC(=O)[C@H](CC(=O)O)NC(=O)CNC(=O)[C@H](CCCNC(=N)N)NC1=O)c(C(=O)NCCS(=O)(=O)O)c3C (some centres unmarked) [Conjugate 41]	In vitro: binding			100	Animals were survived and did not show any behavior or motility problems	no evidence of necrosis or inflammation was found in the liver or the kidneys	8 to 12	≤ 24 h	Accumulate in the Necrotic Core of MDA Necrotic Tumors	8 to 12
